Experimental data from patent US20190263918A1 (SHANGHAI JIAO TONG UNIVERSITY SCHOOL OF MEDICINE, published 2019).

T1: recombinant murine CD40 protein (murine, UniProt P27512 24-193, limits assumed)
T1 construct: Bought; coated on the ELISA plate; also called mouse CD40; mCD40
T1 sequence (looked up): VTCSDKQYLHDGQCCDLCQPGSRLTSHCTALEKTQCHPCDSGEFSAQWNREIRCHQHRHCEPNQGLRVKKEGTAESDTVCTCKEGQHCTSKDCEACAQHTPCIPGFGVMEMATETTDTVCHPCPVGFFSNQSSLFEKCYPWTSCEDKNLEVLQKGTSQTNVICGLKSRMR

T2: murine DR5 on MC38 cells (murine, UniProt Q9QZM4 53-381)
T2 construct: whole, on cells; also called mDR5
T2 sequence (looked up): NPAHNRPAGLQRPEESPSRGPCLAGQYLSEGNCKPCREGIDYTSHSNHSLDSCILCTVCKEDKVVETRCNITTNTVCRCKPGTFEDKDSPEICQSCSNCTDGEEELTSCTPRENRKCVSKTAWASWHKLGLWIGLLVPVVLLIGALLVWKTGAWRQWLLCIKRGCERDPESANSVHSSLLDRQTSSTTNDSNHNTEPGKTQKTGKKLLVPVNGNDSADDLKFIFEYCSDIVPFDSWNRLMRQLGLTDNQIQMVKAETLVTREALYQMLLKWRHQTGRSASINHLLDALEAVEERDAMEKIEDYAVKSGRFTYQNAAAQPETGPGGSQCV

T3: human FcγRIIA-R131 extracellular domain protein (human, UniProt P12318 34-217)
T3 construct: extracellular domain; SPR: His-tagged, immobilised; ELISA: biotinylated; also called hFcγRIIA-R131; CD32a
T3 sequence (looked up): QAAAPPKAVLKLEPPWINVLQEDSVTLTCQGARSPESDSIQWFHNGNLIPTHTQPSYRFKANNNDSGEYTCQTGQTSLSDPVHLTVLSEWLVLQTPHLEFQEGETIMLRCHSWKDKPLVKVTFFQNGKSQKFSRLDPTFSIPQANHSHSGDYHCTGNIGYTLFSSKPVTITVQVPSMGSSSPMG


Key:
[1] = target: T1, recombinant murine CD40 protein; assay: ELISA: plate coated with recombinant murine CD40, antibody in gradient dilutions, HRP-labelled goat anti-human IgG-Fc secondary antibody, A650
Method: For assay on anti-human CD40 antibodies, an ELISA plate was coated with recombinant human CD40 protein (Novoprotein Scientific Inc.) overnight at atmospheric temperature, blocked using 1% BSA at room temperature for 2 h, and then washed three times with PBST (0.05% Tween 20 in PBS). To each well was added […] gradient dilutions of the human agonistic CD40 antibody. The plate was incubated at room temperature for 1 h and washed four times with PBST. Then, 100 ng/ml biotinylated secondary antibody against human Igκ light chain was added, incubated at room temperature for 1 h and washed 4 times with PBST. SAV-HRP at an appropriate concentration was added, incubated at room temperature for 1 h. Then, chromogenic substrate was added to react for 5 minutes, and optical absorbance was determined at 650 nm.
For assay on anti-murine CD40 antibodies, the process was the same, expect that the plate was coated with recombinant murine CD40 protein (Novoprotein Scientific Inc.) and HRP-labeled goat anti-human IgG-Fc antibody was used as the secondary antibody.

murine DR5 on MC38 cells = target: T2, murine DR5 on MC38 cells; assay: flow cytometry on MC38 cells, FITC goat anti-human antibody
Method: To detect the DR5 binding capacity of different anti-DR5 antibodies, MC38 cells were resuspended in ice-cold FACS buffer (PBS+0.5% FBS+2 mM EDTA+0.1% NaN3), to which 3.16-fold gradient dilutions of control and anti-DR5 antibody at concentrations ranging from 2 ng to 20 µg/mL were added, and the reaction was incubated at room temperature for 15 minutes. The system was washed twice with ice-cold FACS buffer, then flow-cytometry stained using FITC-labeled goat anti-human antibody (VECTOR FI-3080) on ice for 25 minutes in dark, which was then washed twice with FACS buffer and analyzed by flow-cytometry. For the antibodies, the DR5 binding capacity was positively correlated to FITC mean fluorescence intensity (MFI).

[2] = target: T3, human FcγRIIA-R131 extracellular domain …; assay: ELISA: plate coated with the anti-human CD40 antibody, biotinylated human FcγRIIA-R131 extracellular domain, streptavidin-HRP, A650 [lower FcγRIIA-R131 panel]
Method: The ELISA plate was coated with 100 μL antibody at an appropriate concentration overnight, supernatant being discarded. The plate was blocked with 1% BSA in PBS for 2 hours, followed by washing with PBST (PBS with 0.05% Tween 20). Then, biotinylated FcγR extracellular domain protein (Sino Biologic Inc., Beijing China) at a concentration as appropriate was added and incubated at room temperature for 1 hour, supernatant being discarded, followed by PBST wash. Streptavidin-HRP (BD Biosciences) was added and incubated at room temperature for 1 hour for detection of biotin protein. After removal of supernatant, developing solution was added to react for 20-40 minutes, and absorbance was determined at 650 nm (A650).

| Binder | binding result (murine DR5 on MC38 cells) | binding result [2] | other results |
| --- | --- | --- | --- |
| Anti-mCD40-hIgG1 (antibody, Chimeric anti-murine CD40 antibody, heavy chain constant region G1) heavy: not shown light: DTVLTQSPALAVSPGERVTISCRASDSVSTLMHWYQQKPGQQPKLLIYLASHLESGVPARFSGSGSGTDFTLTIDPVEADDTATYYCQQSWNDPWTFGGGTKLELKRTVAAPSVFIFPPSDEQLKSGTASVVCLLNNFYPREAKVQWKVDNALQSGNSQESVTEQDSKDSTYSLSSTLTLSKADYEKHKVYACEVTHQGLSSPVTKSFNRGEC |  |  | EC50 (read off the curve) [1]: ~0.1 µg/mL |
| Anti-mDR5-hIgG2 (antibody, Chimeric anti-murine DR5 antibody, heavy chain constant region G2; also called Anti-mDR5-IgG2) heavy: QIQLQESGPGLVKPAQSLSLTCSITGFPITAGGYWWTWIRQFPGQKLEWMGYIYSSGSTNYNPSIKSRISITRDTAKNQFFLQLNSVTTEEDTAIYYCARAGTSYSGFFDSWGQGTLVTVSSASTKGPSVFPLAPCSRSTSESTAALGCLVKDYFPEPVTVSWNSGALTSGVHTFPAVLQSSGLYSLSSVVTVPSSNFGTQTYTCNVDHKPSNTKVDKTVERKCCVECPPCPAPPVAGPSVFLFPPKPKDTLMISRTPEVTCVVVDVSHEDPEVQFNWYVDGVEVHNAKTKPREEQFNSTFRVVSVLTVVHQDWLNGKEYKCKVSNKGLPAPIEKTISKTKGQPREPQVYTLPPSREEMTKNQVSLTCLVKGFYPSDIAVEWESNGQPENNYKTTPPMLDSDGSFFLYSKLTVDKSRWQQGNVFSCSVMHEALHNHYTQKSLSLSPGK light: DIQVTQSPSLLSASFGDKVTINCLVTQDITYYLSWYQQKSGQPPTLLIYNGNSLQSGVPSRFSGQYSGRTFTLSLSSLEPEDAGTYYCLQHYSVPFTFGGGTRLEIKRTVAAPSVFIFPPSDEQLKSGTASVVCLLNNFYPREAKVQWKVDNALQSGNSQESVTEQDSKDSTYSLSSTLTLSKADYEKHKVYACEVTHQGLSSPVTKSFNRGEC | binds |  |  |
| Anti-mDR5-hIgG1(V11) (antibody, Chimeric anti-murine DR5 antibody, heavy chain constant region V11(H1)) heavy: QIQLQESGPGLVKPAQSLSLTCSITGFPITAGGYWWTWIRQFPGQKLEWMGYIYSSGSTNYNPSIKSRISITRDTAKNQFFLQLNSVTTEEDTAIYYCARAGTSYSGFFDSWGQGTLVTVSSATTKGPSVFPLAPSSKSTSGGTAALGCLVKDYFPEPVTVSWNSGALTSGVHTFPAVLQSSGLYSLSSVVTVPSSSLGTQTYICNVNHKPSNTKVDKRVEPKSCDKTHTCPPCPAPELLGDDSVFLFPPKPKDTLMISRTPEVTCVVVDVSDEDGEVKFNWYVDGVEVHNAKTKPREEQYNSTYRVVSVLTVLHQDWLNGKEYKCKVSNKALPRPIEKTISKAKGQPREPQVYTLPPSRDELTKNQVSLTCLVKGFYPSDIAVEWESNGQPENNYKTTPPVLDSDGSFFLYSKLTVDKSRWQQGNVFSCSVMHEALHNHYTQKSLSLSPGK light: DIQVTQSPSLLSASFGDKVTINCLVTQDITYYLSWYQQKSGQPPTLLIYNGNSLQSGVPSRFSGQYSGRTFTLSLSSLEPEDAGTYYCLQHYSVPFTFGGGTRLEIKRTVAAPSVFIFPPSDEQLKSGTASVVCLLNNFYPREAKVQWKVDNALQSGNSQESVTEQDSKDSTYSLSSTLTLSKADYEKHKVYACEVTHQGLSSPVTKSFNRGEC | binds |  |  |
| Anti-mDR5-IgG2(V11) (antibody, Chimeric anti-murine DR5 antibody, heavy chain constant region V11(H2), i.e. JAC1) heavy: QIQLQESGPGLVKPAQSLSLTCSITGFPITAGGYWWTWIRQFPGQKLEWMGYIYSSGSTNYNPSIKSRISITRDTAKNQFFLQLNSVTTEEDTAIYYCARAGTSYSGFFDSWGQGTLVTVSSASTKGPSVFPLAPCSRSTSESTAALGCLVKDYFPEPVTVSWNSGALTSGVHTFPAVLQSSGLYSLSSVVTVPSSNFGTQTYTCNVDHKPSNTKVDKTVERKCCVECPPCPAPELLGDDSVFLFPPKPKDTLMISRTPEVTCVVVDVSDEDGEVKFNWYVDGVEVHNAKTKPREEQYNSTYRVVSVLTVLHQDWLNGKEYKCKVSNKALPRPIEKTISKAKGQPREPQVYTLPPSRDELTKNQVSLTCLVKGFYPSDIAVEWESNGQPENNYKTTPPVLDSDGSFFLYSKLTVDKSRWQQGNVFSCSVMHEALHNHYTQKSLSLSPGK light: DIQVTQSPSLLSASFGDKVTINCLVTQDITYYLSWYQQKSGQPPTLLIYNGNSLQSGVPSRFSGQYSGRTFTLSLSSLEPEDAGTYYCLQHYSVPFTFGGGTRLEIKRTVAAPSVFIFPPSDEQLKSGTASVVCLLNNFYPREAKVQWKVDNALQSGNSQESVTEQDSKDSTYSLSSTLTLSKADYEKHKVYACEVTHQGLSSPVTKSFNRGEC | binds |  |  |
| Anti-hCD40-hIgG2-SELF (antibody, Human anti-human CD40 antibody, heavy chain constant region G2-SELF, i.e. JAC3; also called anti-human CD40 antibody comprising JAC3) heavy: not shown light: DIQMTQSPSSVSASVGDRVTITCRASQGIYSWLAWYQQKPGKAPNLLIYTASTLQSGVPSRFSGSGSGTDFTLTISSLQPEDFATYYCQQANIFPLTFGGGTKVEIKRTVAAPSVFIFPPSDEQLKSGTASVVCLLNNFYPREAKVQWKVDNALQSGNSQESVTEQDSKDSTYSLSSTLTLSKADYEKHKVYACEVTHQGLSSPVTKSFNRGEC |  | binds |  |
| Anti-hCD40-hIgG2-SE (antibody, Human anti-human CD40 antibody, heavy chain constant region G2-SE) heavy: not shown light: DIQMTQSPSSVSASVGDRVTITCRASQGIYSWLAWYQQKPGKAPNLLIYTASTLQSGVPSRFSGSGSGTDFTLTISSLQPEDFATYYCQQANIFPLTFGGGTKVEIKRTVAAPSVFIFPPSDEQLKSGTASVVCLLNNFYPREAKVQWKVDNALQSGNSQESVTEQDSKDSTYSLSSTLTLSKADYEKHKVYACEVTHQGLSSPVTKSFNRGEC |  | binds |  |

More lines, main results first:

| binding result (murine DR5 on MC38 cells) | binding result [2] | Binder | other results |
| --- | --- | --- | --- |
| binds |  | Anti-mDR5-hIgG1-GASDALIE (antibody) heavy: QIQLQESGPGLVKPAQSLSLTCSITGFPITAGGYWWTWIRQFPGQKLEWMGYIYSSGSTNYNPSIKSRISITRDTAKNQFFLQLNSVTTEEDTAIYYCARAGTSYSGFFDSWGQGTLVTVSSATTKGPSVFPLAPSSKSTSGGTAALGCLVKDYFPEPVTVSWNSGALTSGVHTFPAVLQSSGLYSLSSVVTVPSSSLGTQTYICNVNHKPSNTKVDKRVEPKSCDKTHTCPPCPAPELLAGPDVFLFPPKPKDTLMISRTPEVTCVVVDVSHEDPEVKFNWYVDGVEVHNAKTKPREEQYNSTYRVVSVLTVLHQDWLNGKEYKCKVSNKALPLPEEKTISKAKGQPREPQVYTLPPSRDELTKNQVSLTCLVKGFYPSDIAVEWESNGQPENNYKTTPPVLDSDGSFFLYSKLTVDKSRWQQGNVFSCSVMHEALHNHYTQKSLSLSPGK light: DIQVTQSPSLLSASFGDKVTINCLVTQDITYYLSWYQQKSGQPPTLLIYNGNSLQSGVPSRFSGQYSGRTFTLSLSSLEPEDAGTYYCLQHYSVPFTFGGGTRLEIKRTVAAPSVFIFPPSDEQLKSGTASVVCLLNNFYPREAKVQWKVDNALQSGNSQESVTEQDSKDSTYSLSSTLTLSKADYEKHKVYACEVTHQGLSSPVTKSFNRGEC |  |
|  | binds | Anti-hCD40-hIgG1(V11) (antibody, Human anti-human CD40 antibody, heavy chain constant region V11(H1)) heavy: not shown light: DIQMTQSPSSVSASVGDRVTITCRASQGIYSWLAWYQQKPGKAPNLLIYTASTLQSGVPSRFSGSGSGTDFTLTISSLQPEDFATYYCQQANIFPLTFGGGTKVEIKRTVAAPSVFIFPPSDEQLKSGTASVVCLLNNFYPREAKVQWKVDNALQSGNSQESVTEQDSKDSTYSLSSTLTLSKADYEKHKVYACEVTHQGLSSPVTKSFNRGEC |  |
|  | binds | Anti-hCD40-hIgG2-HDPG (antibody, Human anti-human CD40 antibody, heavy chain constant region G2-HDPG, i.e. JAC4; also called anti-human CD40 antibody comprising JAC4) heavy: not shown light: DIQMTQSPSSVSASVGDRVTITCRASQGIYSWLAWYQQKPGKAPNLLIYTASTLQSGVPSRFSGSGSGTDFTLTISSLQPEDFATYYCQQANIFPLTFGGGTKVEIKRTVAAPSVFIFPPSDEQLKSGTASVVCLLNNFYPREAKVQWKVDNALQSGNSQESVTEQDSKDSTYSLSSTLTLSKADYEKHKVYACEVTHQGLSSPVTKSFNRGEC |  |
